{
  "source": "paper PMC11591356",
  "about": "“Immunomodulatory Effects of the Tobacco Defensin NaD1” (Antibiotics, 2024)",
  "key": {"[1]": {"test_system": "Caco-2 cells not in a monolayer", "conditions": "24 h, resazurin", "protocol": "The cytotoxic effects of the tobacco defensin NaD1 towards PBMCs or Caco-2 cells were investigated in 96-well plates using the resazurin method as previously described. In brief, 4 × 10^5 per well Caco-2 cells not in a monolayer as well as Caco-2 cells in a monolayer in DMEM/F12 (1:1) medium with 10% FBS or 2 × 10^6 PBMCs per well in RPMI-1640 also with 10% FBS were incubated with serial dilutions of NaD1 at final concentrations from 0.39 to 50 μM or from 2.1 to 180 μM for 24 h. After that, resazurin (Sigma, St. Louis, MO, USA) was added at a final concentration of 70 µM and the plates were incubated overnight (16–18 h). Untreated cells and cells treated by non-ionogenic detergent Triton X-100 were used as negative and positive controls, respectively. […] The cell viability was estimated by resorufin fluorescence registered at […] via the following equation: cell viability (%) = (Fsample/Fcontrol) × 100%. Experiment was carried out twice in duplicate."}, "[2]": {"test_system": "human smooth muscles (CASMC)", "design": "method as in PMID 28179997", "conditions": "read-out: IC50, MTT cell viability assay; cited from earlier work"}},
  "note": "Like-named read-outs stand apart in the source and are kept apart here. Ends that are not written are not given here.",
  "data": [
    {"substance": "NaD1: Recombinant tobacco floral defensin NaD1 (UNIPROT Q8GTM0), obtained by heterologous expression in E. coli; FITC-labeled in the permeability assay (RECKTESNTFPGICITKPPCRKACISEKFTDGHCSKILRRCLCTKPC; cysteine pairing not given here; also: FITC label; UniProt Q8GTM0 26-72, looked up)", "values": [
      {"measurement": "CC50", "setting": "[1]; calculated", "value": 61.8, "unit": "µM"},
      {"measurement": "Cell viability", "setting": "[1]; peptide 53.3 µM", "value": "approximately 62%"},
      {"measurement": "Cell viability", "setting": "[1]; peptide 180 μM", "value": 8, "unit": "%"},
      {"measurement": "IC50", "setting": "[2]", "value": "~10", "unit": "µM"}
    ]}
  ]
}
